# Source: patent US5849261
# “And” between values parts separate entries of the source, which are not always exact repeats. Equal values may be shown once. No end group written: not given here.
# Assays:
# [1] = target: VIP receptor of guinea pig lung membranes (guinea pig); experiment: competition with 0.01 nM 125I-VIP, guinea pig lung membranes
# [2] = target: VIP receptor on human cells (human); experiment: competition with 125I-VIP on HMC1 cells
# [3] = target: VIP receptor on human cells (human); experiment: competition with 125I-VIP on HT29 cells
# [4] = target: VIP receptor on human cells (human); experiment: competition with 125I-VIP on human PMNCs
# [5] = target: VIP receptor on human cells (human); experiment: competition with 125I-VIP on KU812 cells
# [6] = target: VIP receptor on human cells (human); experiment: competition with 125I-VIP on PANC1 cells
# [7] = target: VIP receptor on human cells (human); experiment: competition with 125I-VIP on COLO320 cells
# [8] = target: VIP receptor on human cells (human); experiment: competition with 125I-VIP on human platelets
Binder,% inhibition @ 0.01 µM [1] [%],IC50 [1],IC50 [2] [nM],IC50 [3] [nM],IC50 [4] [nM],IC50 [5] [nM],IC50 [6] [nM],IC50 [7] [nM],IC50 [8] [nM],Ki [1] [nM]
"HSDAVFTDNYTRLRKQMAVKKYLNSILNC (C-terminal C(BAT): S-(N6,N9-bis(2-mercapto-2-methylpropyl)-6,9-diazanonan-1-yl)cysteine; C-terminal amide) [P917]",83,< 10 nM,,,,,,,,
HSDAVFTDNYTRLRKQMAVKKYLNSILNGGC-NH2 [P916],79,< 10 nM,,,,,,,,
HSDAVFTDNYTRLRKQMAVKKYLNSILNKGC ((ε-K): lysine 29 linked through its ε-amino group to the carboxyl group of the preceding residue; C-terminal amide) [P887],68,< 10 nM,,,,,,,,
AGCHSDAVFTDNYTRLRKQMAVKKYLNSILN-NH2 [P915],,50 nM,,,,,,,,

# The remaining lines, values ahead:
% inhibition @ 0.01 µM [1] [%],IC50 [1],IC50 [2] [nM],IC50 [3] [nM],IC50 [4] [nM],IC50 [5] [nM],IC50 [6] [nM],IC50 [7] [nM],IC50 [8] [nM],Ki [1] [nM],Binder
,20 nM,8.5,6.6,6,5.2,> 10,6,6,,HSDAVFTDNYTRLRKQMAVKKYLNSILNKGC ((ε-K): lysine 29 linked through its ε-amino group; C-terminal amide; non-radioactive ReO complexed to the chelating moiety) [ReO-complexed P887]
,< 10 nM and > 1 nM,15,7,7.5,,14,6.7,4.5,,AGCHSDAVFTDNYTRLRKQMAVKKYLNSILN-NH2 (also: non-radioactive ReO complexed to the chelating moiety) [ReO-complexed P915]
,20 nM,7,8.5,6.5,,12.5,4,3,,HSDAVFTDNYTRLRKQMAVKKYLNSILNGGC-NH2 (also: non-radioactive ReO complexed to the chelating moiety) [ReO-complexed P916]
,,7,1.2,5.5,0.8,4.2,1.5,4,,HSDAVFTDNYTRLRKQMAVKKYLNSILN-NH2 [Vasoactive intestinal peptide (VIP)]
,6.9 nM,7,2.2,2.7,1,3.7,2,0.8,6.7,"HSDAVFTDNYTRLRKQMAVKKYLNSILNC (C-terminal C(BAT): S-(N6,N9-bis(2-mercapto-2-methylpropyl)-6,9-diazanonan-1-yl)cysteine; C-terminal amide; non-radioactive ReO complexed to the chelating moiety) [ReO-complexed P917]"
